By Kd is commonly meant a measure of binding affinity in units of concentration.

Data on ten molecules can be found in paper PMC5030626, “G-quadruplex aptamer targeting Protein A and its capability to detect Staphylococcus aureus demonstrated by ELONA”.

Data set [1] has as its target T1, Protein A, recombinant (P7837) (Staphylococcus aureus, UniProt P02976 37-327). The experiment in a line: ELONA; signal in range of library control; ELONA and bead assay: 100 mM NaCl, 20 mM Tris-HCl pH 7.6, 10 mM MgCl2, 5 mM KCl, 1 mM CaCl2, 0.005% Tween 20, 21 C; CD: 25 mM Britton-Robinson pH 7.6, 100 mM NaCl, 10 mM MgCl2, 1 mM CaCl2, 5 mM KCl.
In data set [2] the target is T2, Protein A, native (Staphylococcus aureus, UniProt P38507 37-477). The experiment in a line: CD difference spectrum; ELONA and bead assay: 100 mM NaCl, 20 mM Tris-HCl pH 7.6, 10 mM MgCl2, 5 mM KCl, 1 mM CaCl2, 0.005% Tween 20, 21 C; CD: 25 mM Britton-Robinson pH 7.6, 100 mM NaCl, 10 mM MgCl2, 1 mM CaCl2, 5 mM KCl.
Data set [3] addresses T2, Protein A, native. The experiment in a line: ELONA; ELONA and bead assay: 100 mM NaCl, 20 mM Tris-HCl pH 7.6, 10 mM MgCl2, 5 mM KCl, 1 mM CaCl2, 0.005% Tween 20, 21 C; CD: 25 mM Britton-Robinson pH 7.6, 100 mM NaCl, 10 mM MgCl2, 1 mM CaCl2, 5 mM KCl. The conditions noted are these: protein: native; label: 3'-biotin; G4 (parallel, di-/multimers) plus 5' imperfect hairpin.
Data set [4] concerns the target T1, Protein A, recombinant (P7837). Described as above. The conditions noted are these: protein: recombinant.

In the case of ATACCAGCTTATTCAATTAGCAACATGAGGGGGATAGAGGGGGTGGGTTC (structured_DNA) [PA#2/8[S1-50] (Bio)], in data set [1] (label: biotin (5' or 3'; 3' on cells), G4 plus 5' imperfect hairpin), the binding result is given as “no binding”.
In the case of ATACCAGCTTATTCAATTAGCAACATGAGGGGGATAGAGGGGGTGGGTTC (structured_DNA) [PA#2/8[S1-50] (unlabelled)], in data set [2] (G4 plus 5' imperfect hairpin), the binding result was “binds”.
ATACCAGCTTATTCAATTAGCAACATGAGGGGGATAGAGGGGG (structured_DNA) [PA#2/8[S1-43] (Bio)]: the binding result in data set [1] (label: biotin (5' or 3'), G4, mainly monomer, plus 5' imperfect hairpin) was “no binding”.
Take ATACCAGCTTATTCAATTAGCAACATGAGGGGGATAGAGGGGG (structured_DNA) [PA#2/8[S1-43] (unlabelled)]: in data set [2] (G4, mainly monomer, plus 5' imperfect hairpin), the binding result is “binds”.

B1: PA#2/8 (3'Bio) (structured_DNA)
DNA: ATACCAGCTTATTCAATTAGCAACATGAGGGGGATAGAGGGGGTGGGTTCTCTCGGCTACAATCGTAATCAGTTAG
B1: the binding result in data set [3] is recorded as “binds”. Besides, in data set [4] (label: 3'-biotin, G4 (parallel, di-/multimers) plus 5' imperfect hairpin), the dissociation constant Kd came to 101 ± 5.9 nM.

B2: PA#2/8 (unlabelled) (structured_DNA)
DNA: B1 DNA
For the molecule B2, in data set [2] (G4 (parallel, di-/multimers) plus 5' imperfect hairpin), the binding result is “binds”.

B3: PA#2/8 (5'Bio) (structured_DNA)
DNA: B1 DNA
For the molecule B3, the Kd in data set [4] (label: 5'-biotin, G4 (parallel, di-/multimers) plus 5' imperfect hairpin) turned out to be 190 ± 13 nM.

B4: PA#2/8[S1-58] (3'Bio) (structured_DNA)
DNA: ATACCAGCTTATTCAATTAGCAACATGAGGGGGATAGAGGGGGTGGGTTCTCTCGGCT
As to B4, the equilibrium dissociation constant (Kd) in data set [4] (label: 3'-biotin, G4 plus 5' imperfect hairpin) was 11.3 ± 1.4 nM.

B5: PA#2/8[S1-58] (unlabelled) (structured_DNA)
DNA: B4 DNA
For B5, the binding result in data set [2] (G4 plus 5' imperfect hairpin) was “binds”.

B6: PA#2/8[S1-58] (5'Bio) (structured_DNA)
DNA: B4 DNA
In the case of B6, the dissociation constant (Kd) in data set [4] (label: 5'-biotin, G4 plus 5' imperfect hairpin) amounted to 23.7 ± 2 nM.
